Substitutions are numbered along the chain they refer to.
B1: 2290-C07 (antibody, V domains shown)
VH: EVQLVESGGGLVQPGGSLRLSCAASGFNITYDWIHWVRQAPGKGLEWVGVITPFDGYTYYADSVKGHFTISADTSKNTAYLQMNSLRAEDTAVYYCARDMGVGYWVGFSDYWGQGTLVTVSS
VL: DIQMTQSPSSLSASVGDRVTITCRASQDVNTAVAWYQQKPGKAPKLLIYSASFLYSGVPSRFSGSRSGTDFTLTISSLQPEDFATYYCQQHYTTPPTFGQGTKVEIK
notes: also called Antibody 19
B2: 2290-G01 (antibody, V domains shown)
VH: B1 VH with T30S, Y31P, D32Y, F54P, D55S, Y57F, H67R, M83V, M100L
VL: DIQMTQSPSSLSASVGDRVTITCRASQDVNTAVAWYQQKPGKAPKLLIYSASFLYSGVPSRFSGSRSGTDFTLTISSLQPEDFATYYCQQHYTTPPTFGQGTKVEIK
notes: also called Antibody 17
B3: 2137-C07 (antibody, V domains shown)
VH: EVQLVESGGGLVQPGGSLRLSCAASGFNISGSGIHWVRQAPGKGLEWVGFINPAGGYTDYADSVKGRFTISADTSKNTAYLQMNSLRAEDTAVYYCARDYVYQYWTYVLDYWGQGTLVTVSS
VL: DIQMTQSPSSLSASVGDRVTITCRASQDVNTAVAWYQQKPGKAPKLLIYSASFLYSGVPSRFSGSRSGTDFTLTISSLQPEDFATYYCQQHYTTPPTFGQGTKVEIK
notes: IgG1 with His/FLAG tag, cell-free expressed, trastuzumab LC; also called Antibody 1
B4: 2265-F02 (antibody, V domains shown)
VH: B3 VH with G31A, S32P, V101I, Y102R
VL: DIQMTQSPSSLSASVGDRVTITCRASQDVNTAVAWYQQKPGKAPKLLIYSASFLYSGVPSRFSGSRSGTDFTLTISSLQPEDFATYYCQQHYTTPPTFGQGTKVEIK
notes: also called Antibody 4; Antibody 2265-F02
B5: 2265-D11 (antibody, V domains shown)
VH: B3 VH with S32P, G55A, V101I
VL: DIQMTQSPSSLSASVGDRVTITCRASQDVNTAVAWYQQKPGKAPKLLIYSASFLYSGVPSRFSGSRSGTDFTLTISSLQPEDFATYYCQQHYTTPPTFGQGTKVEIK
notes: also called Antibody 9
B6: 2265-C02 (antibody, V domains shown)
VH: B3 VH with S30G, G31V, D62G, V101I, Q103S
VL: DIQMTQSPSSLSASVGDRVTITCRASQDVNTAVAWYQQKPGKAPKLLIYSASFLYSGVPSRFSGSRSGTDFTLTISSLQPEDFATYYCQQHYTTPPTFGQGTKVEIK
notes: also called Antibody 12
B7: 2265-B06 (antibody, V domains shown)
VH: B3 VH with S30R, G31V, Y102Q, Q103A
VL: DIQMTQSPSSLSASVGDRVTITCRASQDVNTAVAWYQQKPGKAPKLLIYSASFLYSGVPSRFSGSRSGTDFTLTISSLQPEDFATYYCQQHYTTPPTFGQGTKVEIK
notes: also called Antibody 5
B8: 2265-A09 (antibody, V domains shown)
VH: B3 VH with S30I, S32P, Q103N
VL: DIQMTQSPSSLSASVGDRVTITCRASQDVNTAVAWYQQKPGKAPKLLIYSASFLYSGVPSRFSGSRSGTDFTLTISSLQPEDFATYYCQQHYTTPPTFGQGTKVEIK
notes: also called Antibody 6
B9: 2265-D05 (antibody, V domains shown)
VH: B3 VH with S32P, G55A, T69A, Y100F, Q103A
VL: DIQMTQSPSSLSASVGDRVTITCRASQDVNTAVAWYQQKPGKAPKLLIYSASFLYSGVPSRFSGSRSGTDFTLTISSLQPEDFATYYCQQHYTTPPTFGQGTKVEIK
notes: also called Antibody 10
B10: 2265-F03 (antibody, V domains shown)
VH: B3 VH with S30R, S32P, N52S, G55A, Y100F, Y102Q, Q103S
VL: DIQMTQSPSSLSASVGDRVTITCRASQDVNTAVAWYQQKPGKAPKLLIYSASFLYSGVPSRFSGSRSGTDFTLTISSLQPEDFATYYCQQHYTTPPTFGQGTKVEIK
notes: also called Antibody 7
B11: 2265-A06 (antibody, V domains shown)
VH: B3 VH with S30Y, G31R, Y102P
VL: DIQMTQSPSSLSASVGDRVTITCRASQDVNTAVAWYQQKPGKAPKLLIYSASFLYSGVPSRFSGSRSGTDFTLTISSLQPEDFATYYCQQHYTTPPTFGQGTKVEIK
notes: also called Antibody 13
B12: 2213-A06 (antibody, V domains shown)
VH: EVQLVESGGGLVQPGGSLRLSCAASGFNISSYAIHWVRQAPGKGLEWVGVISPYGGYTEYADSVKGRFTISADTSKNTAYLQMNSLRAEDTAVYYCARDFYDRYSTYVLDYWGQGTLVTVSS
VL: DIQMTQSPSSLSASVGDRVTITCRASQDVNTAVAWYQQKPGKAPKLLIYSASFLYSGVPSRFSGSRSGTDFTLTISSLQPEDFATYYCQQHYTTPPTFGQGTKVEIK
notes: also called Antibody 23
B13: 2265-F06 (antibody, V domains shown)
VH: B3 VH with G31Y, S32P, V101I, Y102L
VL: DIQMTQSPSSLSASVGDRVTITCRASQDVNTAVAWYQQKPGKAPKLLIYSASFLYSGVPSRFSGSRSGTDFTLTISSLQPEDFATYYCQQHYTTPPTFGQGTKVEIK
notes: also called Antibody 2
B14: 2265-E02 (antibody, V domains shown)
VH: B3 VH with S30Y, G31V, M83T
VL: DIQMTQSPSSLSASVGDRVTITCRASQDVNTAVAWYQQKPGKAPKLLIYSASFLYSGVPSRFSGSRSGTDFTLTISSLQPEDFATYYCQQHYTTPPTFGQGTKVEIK
notes: also called Antibody 8
B15: 2265-F05 (antibody, V domains shown)
VH: B3 VH with S30I, G31A, S32P, Y102N, Q103A
VL: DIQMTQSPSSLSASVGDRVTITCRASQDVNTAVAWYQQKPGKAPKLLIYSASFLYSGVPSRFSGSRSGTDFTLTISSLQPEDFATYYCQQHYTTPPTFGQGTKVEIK
notes: also called Antibody 3
B16: 2265-C03 (antibody, V domains shown)
VH: B3 VH with S25P, G31V, S32P, Y102P
VL: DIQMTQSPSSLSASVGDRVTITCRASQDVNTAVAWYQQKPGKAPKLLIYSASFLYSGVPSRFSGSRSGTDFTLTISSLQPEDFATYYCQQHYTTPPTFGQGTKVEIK
notes: also called Antibody 11
B17: 9A8 (antibody, V domains shown)
VH: AVTLDESGGGLQTPGGTLSLVCKASGFTFSSFNMFWVRQAPGKGLEWVAYIRNDGNSASYGPAVKGRATISRDNGQSTVRLQLNNLRAEDTATYYCAKTTCIGSGGCIDTWGHGTEVIVSS
VL: ALTQPSSVSANPGETVKITCSGGSSDYGWFQQKSPGSAPVTVIYSNNQRPSGIPSRFSGSKSGSTGTLTITGVQAEDEAIYYCANVDYTDDVFGAGTTLTVL
notes: Chicken HybriFree-derived antibody; also called Antibody 30
B18: 10G5 (antibody, V domains shown)
VH: B17 VH with T17V, R52S, N56S, A58T, Y95F
VL: B17 VL with S24N, S25Y, F30Y, V42L, S45Y, Q48K, G52D, Y88S
notes: Chicken HybriFree-derived antibody; also called Antibody 31

Legend:
human BCMA-Fc [1] = molecular target: T1, human BCMA-Fc (human, UniProt Q02223 1-54); assay: ELISA, coated huBCMA-Fc
T1 construct: Bought from R&D Systems; also called huBCMA-Fc; not shown: Fc part not described
T1 sequence: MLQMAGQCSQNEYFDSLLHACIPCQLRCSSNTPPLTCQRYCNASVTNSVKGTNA

cynomolgus BCMA on cells = cynomolgus BCMA on cells (cynomolgus monkey, UniProt Q02223 1-184 (human entry)); assay: FACS, 293T-cynoBCMA cells
Sequence of cynomolgus BCMA on cells (Q02223 other isoform, or with tags, fused parts or gaps): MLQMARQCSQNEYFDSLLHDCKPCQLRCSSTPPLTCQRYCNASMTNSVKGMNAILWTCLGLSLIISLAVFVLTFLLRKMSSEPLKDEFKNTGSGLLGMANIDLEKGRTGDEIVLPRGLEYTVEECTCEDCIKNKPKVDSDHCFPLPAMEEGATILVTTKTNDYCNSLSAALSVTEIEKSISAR
Method: (§1) Variants for which sufficient protein was purified in secondary screening were tested in a fluorescence-activated cell sorting (FACS) cell-binding assay. […] 6-12 point dilutions of anti-BCMA variants starting from concentrations of about 100-200 nM antibody were dispensed into each well using a BioMekFX (Beckman Coulter). Cells were then incubated on ice for 1 hr, washed with FACS buffer and incubated for 1 hr on ice with […] FACS buffer containing 2.5 μg/ml Alexa647-conjugated Goat Anti-Human IgG dispensed using BioMekFX (Beckman Coulter). Cells were then washed 2× with FACS buffer and fixed for 10 minutes in […] PBS with 2% paraformaldehyde (PFA) prior to fluorescence detection. Samples were acquired using a Beckton Dickinson LSRII FACS. Geometric Mean Fluorescence Intensity of BCMA antibody binding was analyzed using FlowJo® software (Tree Star, Inc.).

cyno BCMA-Fc [2] = molecular target: T2, cyno BCMA-Fc (cynomolgus monkey, UniProt Q02223 1-54 (human entry)); assay: ELISA, coated cynoBCMA-Fc
T2 construct: Custom protein production; also called cynomolgus BCMA-Fc; not shown: Fc part not described

human BCMA-Fc [3] = molecular target: T1, human BCMA-Fc; assay: SPR Biacore, antibody captured, 25 C
Method: (§2) Anti-Fab or anti-Fc polyclonal antibodies were immobilized onto a CM5 chip (GE Life Sciences) using amine coupling chemistry (from Amine Coupling Kit, GE Life Sciences). The immobilization steps were carried out at a flow rate of 25 μL/min in 1×HBS-EP+ buffer (GE Life Sciences; 10× Stock diluted before use). The sensor surfaces were activated for 7 min with a mixture of NHS (0.05 M) and EDC (0.2 M). The anti-Fab or anti-Fc antibodies were injected over all 4 flow cells at a concentration of 25 μg/ml in 10 mM sodium acetate, pH 4.5, for 7 min. Ethanolamine (1 M, pH 8.5) was injected for 7 min to block any remaining activated groups.
(§3) Off-rate and kinetic binding experiments were performed at 25° C. using 1×HBS-EP+ buffer. […] After capturing ligand (antibody) on the anti-Fab or anti-Fc surface, the analyte (human BCMA-Fc, cyno BCMA-Fc, or human BCMA from R&D Systems, custom protein production, or Sigma Aldrich, respectively) was bound for 180 seconds, followed by a 600 second dissociation phase at a flow rate of 50 μL/min. Between each ligand capture and analyte binding cycle, regeneration was carried out using 2 injections of 10 mM glycine pH 2.0 for 30 seconds at 30 μL/min, followed by a 30 second buffer wash step.
(§4) The data was fit with the Biacore T200 Evaluation software, using a 1-1 Langmuir binding model. KD (affinity, nM) was determined as a ratio of the kinetic rate constants calculated from the fits of the association and dissociation phases.

human BCMA on cells = molecular target: T3, human BCMA on cells (human, UniProt Q02223 1-184); assay: FACS, NCI-H929 cells
T3 construct: also called hBCMA; BCMA on NCI-H929, ARP-1, OPM-2, U266B1, MM.1S, RPMI-8226 cells
T3 sequence: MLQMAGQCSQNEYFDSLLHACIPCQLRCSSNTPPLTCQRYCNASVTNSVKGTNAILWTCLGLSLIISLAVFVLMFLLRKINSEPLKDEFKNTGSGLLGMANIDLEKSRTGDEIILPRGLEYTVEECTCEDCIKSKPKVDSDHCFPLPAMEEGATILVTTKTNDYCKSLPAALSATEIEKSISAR
Method: as §1

cyno BCMA-Fc [4] = molecular target: T2, cyno BCMA-Fc; assay: SPR Biacore, antibody captured, 25 C
Method: as §2, §3, §4

Row | Binder | Bmax (human BCMA-Fc [1]) | EC50 (human BCMA-Fc [1]) | Bmax (cynomolgus BCMA on cells) | Kd (cynomolgus BCMA on cells) | Bmax (cyno BCMA-Fc [2]) | EC50 (cyno BCMA-Fc [2]) | Kd (human BCMA-Fc [3]) | koff (human BCMA-Fc [3]) | kon (human BCMA-Fc [3]) | Bmax (human BCMA on cells) | Kd (human BCMA on cells) | Kd (cyno BCMA-Fc [4]) | koff (cyno BCMA-Fc [4]) | kon (cyno BCMA-Fc [4])
1 | B1 | 4.12e+06 | 0.2 nM | 78100 MFI | 6.7 nM | 3.81e+06 | 0.2 nM | 0.612 nM | 0.000221 s⁻¹ | 361000 M⁻¹ s⁻¹ | – | – | – | – | –
2 | B2 | 4.83e+06 | 0.3 nM | 77100 MFI | 4.7 nM | 4.6e+06 | 0.3 nM | 0.445 nM | 0.000318 s⁻¹ | 714000 M⁻¹ s⁻¹ | – | – | – | – | –
3 | B3 | – | – | 18500 MFI | 10.1 nM | – | – | 1.63 nM | 0.000745 s⁻¹ | 457000 M⁻¹ s⁻¹ | – | – | – | – | –
4 | B4 | – | – | 23800 MFI | 6.2 nM | – | – | 0.499 nM | 0.000293 s⁻¹ | 587000 M⁻¹ s⁻¹ | 11700 MFI | 5.2 nM | 3.68 nM | 0.00116 s⁻¹ | 315000 M⁻¹ s⁻¹
5 | B5 | – | – | 21300 MFI | 3.8 nM | – | – | 0.701 nM | 0.000537 s⁻¹ | 766000 M⁻¹ s⁻¹ | 10900 MFI | 4 nM | 3.24 nM | 0.00116 s⁻¹ | 358000 M⁻¹ s⁻¹
6 | B6 | – | – | 24100 MFI | 4.9 nM | – | – | 0.758 nM | 0.000567 s⁻¹ | 747000 M⁻¹ s⁻¹ | 11500 MFI | 4.4 nM | 4.22 nM | 0.00137 s⁻¹ | 325000 M⁻¹ s⁻¹
7 | B7 | – | – | 26700 MFI | 5.1 nM | – | – | 0.546 nM | 0.000385 s⁻¹ | 705000 M⁻¹ s⁻¹ | 11600 MFI | 4.5 nM | 3.67 nM | 0.0013 s⁻¹ | 354000 M⁻¹ s⁻¹
8 | B8 | – | – | 18500 MFI | 3 nM | – | – | 0.589 nM | 0.000318 s⁻¹ | 539000 M⁻¹ s⁻¹ | 12700 MFI | 10.3 nM | 6.43 nM | 0.00173 s⁻¹ | 270000 M⁻¹ s⁻¹
9 | B9 | – | – | 21900 MFI | 2.5 nM | – | – | 0.702 nM | 0.000485 s⁻¹ | 691000 M⁻¹ s⁻¹ | 9620 MFI | 4.4 nM | 4.53 nM | 0.00147 s⁻¹ | 325000 M⁻¹ s⁻¹
10 | B10 | – | – | 17400 MFI | 2.5 nM | – | – | 0.633 nM | 0.000474 s⁻¹ | 749000 M⁻¹ s⁻¹ | 11200 MFI | 4.3 nM | 7.9 nM | 0.00274 s⁻¹ | 346000 M⁻¹ s⁻¹
11 | B11 | – | – | 22100 MFI | 3.8 nM | – | – | 0.789 nM | 0.000392 s⁻¹ | 497000 M⁻¹ s⁻¹ | 11100 MFI | 5.7 nM | 6.24 nM | 0.00156 s⁻¹ | 249000 M⁻¹ s⁻¹
12 | B12 | 3.68e+06 | 0.2 nM | 3620 MFI | 15.1 nM | 2.23e+06 | 39 nM | 2.08 nM | 0.00283 s⁻¹ | 1.36e+06 M⁻¹ s⁻¹ | 2510 MFI | 5.3 nM | – | – | –
13 | B13 | – | – | 25800 MFI | 3.4 nM | – | – | 0.276 nM | 0.000193 s⁻¹ | 699000 M⁻¹ s⁻¹ | 11400 MFI | 4.5 nM | 3.84 nM | 0.00133 s⁻¹ | 347000 M⁻¹ s⁻¹
14 | B14 | – | – | 21800 MFI | 5 nM | – | – | 0.67 nM | 0.000383 s⁻¹ | 571000 M⁻¹ s⁻¹ | 12200 MFI | 4.5 nM | 5.75 nM | 0.00153 s⁻¹ | 266000 M⁻¹ s⁻¹
15 | B15 | – | – | 26600 MFI | 3.4 nM | – | – | 0.469 nM | 0.00024 s⁻¹ | 512000 M⁻¹ s⁻¹ | 11900 MFI | 6.2 nM | 4.39 nM | 0.00114 s⁻¹ | 260000 M⁻¹ s⁻¹
16 | B16 | – | – | – | – | – | – | 0.724 nM | 0.000425 s⁻¹ | 587000 M⁻¹ s⁻¹ | 12500 MFI | 5.3 nM | 5.83 nM | 0.00177 s⁻¹ | 304000 M⁻¹ s⁻¹
17 | B17 | – | – | 17800 MFI | 8.87 nM | – | – | – | – | – | 21100 MFI | 33 nM | – | – | –
18 | B18 | – | – | 24400 MFI | 7.33 nM | – | – | – | – | – | 25800 MFI | 65.8 nM | – | – | –
